Source: PMC7957560

What follows are sequences tested on viral hemagglutinin on virions (vHA) (Influenza A virus A/chicken/Kurgan/3654at/2005 (H5N1)) (assay: BLI). Settings: BLI at 30 C in sodium-potassium phosphate buffer pH 7.4 ([…].

GGGAGGGAGGGAGGG [G7nt-A_A_A] and GGGAGGGAGGGCGGG [G7nt-A_A_C] are within 1.5-fold of each other in Kd: 0.2 nM for the first, 0.3 nM for the second.

GGGAGGGTGGGTGGG [G7nt-A_T_T] and GGGTGGGAGGGCGGG [G7nt-T_A_C] are within 1.5-fold of each other in Kd: 0.2 nM for the first, 0.3 nM for the second.

Going from GGGTGGGAGGGTGGG [G7nt-T_A_T] to GGGTGGGTGGGAGGG [G7nt-T_T_A], the Kd rises from 0.07 nM to 0.7 nM (10-fold).

Compared with GGGTGGGTGGGTGGG [G7nt-T_T_T], GGGTTATTTTGGGAGGGCGGG [G7nt] is 4.6-fold lower in Kd: 0.6 nM for the first, 0.13 nM for the second. The second binds more tightly here.

GGGTTATTTTGGGAGGGCGGGGGTT [G7n5t] and TTGGGGTTAGGGAGGGCGGGGGTT [G7-TTA_A_C] are the same in Kd: 0.04 nM for the first, 0.04 nM for the second.

First: TTGGGGTTATTAAGGGAGGGCGGGGGTT [G7-TTATTAA_A_C]
Second: TTGGGGTTATTTTGGGAGGGCGGG [G7n3t]
The Kd of the first is 1.8-fold lower: 0.09 nM for the first, 0.16 nM for the second.

For TTGGGGTTATTTTGGGAGGGCGGGGGTT [RHA0385], the Kd was 0.05 nM.
